Assay results reported in US20150231218A1 (MAYO FOUNDATION FOR MEDICAL EDUCATION AND RESEARCH, published 2015).

Molecular target: T1, HLA-A2 (class I MHC molecule) on TAP deficient T2 cells
T1 construct: whole, on cells; Target of the T2 HLA-A2 stabilization assay; The assay text says only HLA-A2; also called HLA-A*0201
Assay: T2 HLA-A2 stabilization assay
Description: Many of the polypeptides that were processed in the assay were synthesized and tested for binding to the class I MHC molecule, HLA-A2, using the standard T2 HLA-A2 stabilization assay.

B1: HER-2/neu polypeptide p373-382 (SLAFLPESFD) (peptide)
peptide: SLAFLPESFD
notes: Synthetic peptide
Does B1 bind?
Result: binds
